Several values for one entry are separate records, joined by “and”; a condition that tells them apart may be missing. Equal entries are not always repeated. Where two headings read alike, the source gives them in different places.
Conditions: for Any DLTs: first 2 cycles
Method: The phase 1a dose escalation study in US (ClinicalTrials.gov Identifier: NCT03707093) included accelerated titration (0.03, 0.1 and 0.3 mg/kg) and conventional dose escalation (1, 3, and 10 mg/kg). The phase 1a dose escalation study in China (ClinicalTrials.gov Identifier: NCT03802955) included accelerated titration (0.1 mg/kg) and conventional dose escalation (0.5, 1.5, 3, 5, and 10 mg/kg). […] Patients with advanced or metastatic solid tumors and/or non-Hodgkin lymphoma who were refractory or relapsed and exhausted all available therapies were enrolled and received treatment until disease progression, intolerable toxicity, withdrawal with consent, or for a maximum of 24 months.
Dose expansion studies were conducted for dose levels that were proven tolerable in Phase 1a and with evidence of clinical or biological activity. The dose levels studied in Phase 1 b were 3 mg/kg and 5 mg/kg.

With “ADG106: fully human agonistic anti-CD137 monoclonal IgG4 antibody; heavy chain SEQ ID NO: 10, light chain SEQ ID NO: 11” the “>=G3 adverse events” value (0.03 mg/kg N=1) was 1 (100) n (%), the “Any Drug Related TEAEs” value (0.03 mg/kg N=1) was 1 (100) n (%) and the “Any SAE” value (0.03 mg/kg N=1) was 0 n (%). The “Any TEAEs Leading to Study Drug Discontinuation” value (0.03 mg/kg N=1) was 0 n (%), the “Any TEAEs leading to Study Drug Dose Reduction or Interruption” value (0.03 mg/kg N=1) was 1 (100) n (%) and the “Any TEAEs with Outcome of Death” value (0.03 mg/kg N=1) was 0 n (%). For the same substance, the “Drug Related SAE” value (0.03 mg/kg N=1) was 0 n (%), the “SAE leading to Drug discontinuation” value (0.03 mg/kg N=1) was 0 n (%) and the “Any DLTs” value (0.03 mg/kg N=1) was 0 n (%). The “>=G3 adverse events” value (0.1 mg/kg N=2) was 0 n (%), the “Any Drug Related TEAEs” value (0.1 mg/kg N=2) was 2 (100) n (%) and the “Any SAE” value (0.1 mg/kg N=2) was 0 n (%). For the same substance, the “Any TEAEs Leading to Study Drug Discontinuation” value (0.1 mg/kg N=2) was 0 n (%), the “Any TEAEs leading to Study Drug Dose Reduction or Interruption” value (0.1 mg/kg N=2) was 0 n (%) and the “Any TEAEs with Outcome of Death” value (0.1 mg/kg N=2) was 0 n (%). The “Drug Related SAE” value (0.1 mg/kg N=2) was 0 n (%), the “SAE leading to Drug discontinuation” value (0.1 mg/kg N=2) was 0 n (%) and the “Any DLTs” value (0.1 mg/kg N=2) was 0 n (%). The “>=G3 adverse events” value (0.3 mg/kg N=1) was 1 (100) n (%), the “Any Drug Related TEAEs” value (0.3 mg/kg N=1) was 1 (100) n (%) and the “Any SAE” value (0.3 mg/kg N=1) was 0 n (%). For the same substance, the “Any TEAEs Leading to Study Drug Discontinuation” value (0.3 mg/kg N=1) was 0 n (%), the “Any TEAEs leading to Study Drug Dose Reduction or Interruption” value (0.3 mg/kg N=1) was 0 n (%) and the “Any TEAEs with Outcome of Death” value (0.3 mg/kg N=1) was 0 n (%). The “Drug Related SAE” value (0.3 mg/kg N=1) was 0 n (%), the “SAE leading to Drug discontinuation” value (0.3 mg/kg N=1) was 0 n (%) and the “Any DLTs” value (0.3 mg/kg N=1) was 0 n (%). The “>=G3 adverse events” value (0.5 mg/kg N=3) was 0 n (%), the “Any Drug Related TEAEs” value (0.5 mg/kg N=3) was 2 (67) n (%) and the “Any SAE” value (0.5 mg/kg N=3) was 0 n (%). For the same substance, the “Any TEAEs Leading to Study Drug Discontinuation” value (0.5 mg/kg N=3) was 0 n (%), the “Any TEAEs leading to Study Drug Dose Reduction or Interruption” value (0.5 mg/kg N=3) was 0 n (%) and the “Any TEAEs with Outcome of Death” value (0.5 mg/kg N=3) was 0 n (%). The “Drug Related SAE” value (0.5 mg/kg N=3) was 0 n (%), the “SAE leading to Drug discontinuation” value (0.5 mg/kg N=3) was 0 n (%) and the “Any DLTs” value (0.5 mg/kg N=3) was 0 n (%). The “>=G3 adverse events” value (1 mg/kg N=4) was 3 (75) n (%), the “Any Drug Related TEAEs” value (1 mg/kg N=4) was 4 (100) n (%) and the “Any SAE” value (1 mg/kg N=4) was 1 (25) n (%). For the same substance, the “Any TEAEs Leading to Study Drug Discontinuation” value (1 mg/kg N=4) was 1 (25) n (%), the “Any TEAEs leading to Study Drug Dose Reduction or Interruption” value (1 mg/kg N=4) was 0 n (%) and the “Any TEAEs with Outcome of Death” value (1 mg/kg N=4) was 1 (25) n (%). The “Drug Related SAE” value (1 mg/kg N=4) was 0 n (%), the “SAE leading to Drug discontinuation” value (1 mg/kg N=4) was 0 n (%) and the “Any DLTs” value (1 mg/kg N=4) was 0 n (%). For the same substance, the “>=G3 adverse events” value (1.5 mg/kg N=5) was 0 n (%), the “Any Drug Related TEAEs” value (1.5 mg/kg N=5) was 2 (40) n (%) and the “Any SAE” value (1.5 mg/kg N=5) was 1 (20) n (%). The “Any TEAEs Leading to Study Drug Discontinuation” value (1.5 mg/kg N=5) was 0 n (%), the “Any TEAEs leading to Study Drug Dose Reduction or Interruption” value (1.5 mg/kg N=5) was 0 n (%) and the “Any TEAEs with Outcome of Death” value (1.5 mg/kg N=5) was 0 n (%). For the same substance, the “Drug Related SAE” value (1.5 mg/kg N=5) was 0 n (%), the “SAE leading to Drug discontinuation” value (1.5 mg/kg N=5) was 0 n (%) and the “Any DLTs” value (1.5 mg/kg N=5) was 0 n (%). The “>=G3 adverse events” value (3 mg/kg N=12) was 4 n (%), the “Any Drug Related TEAEs” value (3 mg/kg N=12) was 6 n (%) and the “Any SAE” value (3 mg/kg N=12) was 3 n (%). For the same substance, the “Any TEAEs Leading to Study Drug Discontinuation” value (3 mg/kg N=12) was 1 n (%), the “Any TEAEs leading to Study Drug Dose Reduction or Interruption” value (3 mg/kg N=12) was 0 n (%) and the “Any TEAEs with Outcome of Death” value (3 mg/kg N=12) was 1 n (%). For the same substance, the “Drug Related SAE” value (3 mg/kg N=12) was 0 n (%), the “SAE leading to Drug discontinuation” value (3 mg/kg N=12) was 0 n (%) and the “Any DLTs” value (3 mg/kg N=12) was 0 n (%). The “>=G3 adverse events” value (5 mg/kg N=7) was 2 (39) n (%), the “Any Drug Related TEAEs” value (5 mg/kg N=7) was 4 (57) n (%) and the “Any SAE” value (5 mg/kg N=7) was 3 (43) n (%). For the same substance, the “Any TEAEs Leading to Study Drug Discontinuation” value (5 mg/kg N=7) was 1 (14) n (%), the “Any TEAEs leading to Study Drug Dose Reduction or Interruption” value (5 mg/kg N=7) was 0 n (%) and the “Any TEAEs with Outcome of Death” value (5 mg/kg N=7) was 0 n (%). For the same substance, the “Drug Related SAE” value (5 mg/kg N=7) was 2 (29) n (%), the “SAE leading to Drug discontinuation” value (5 mg/kg N=7) was 1 (14) n (%) and the “Any DLTs” value (5 mg/kg N=7) was 1 n (%) and 1 (14) n (%). For the same substance, the “>=G3 adverse events” value (10 mg/kg N=5) was 4 (80) n (%), the “Any Drug Related TEAEs” value (10 mg/kg N=5) was 4 (80) n (%) and the “Any SAE” value (10 mg/kg N=5) was 2 (40) n (%). The “Any TEAEs Leading to Study Drug Discontinuation” value (10 mg/kg N=5) was 2 (40) n (%), the “Any TEAEs leading to Study Drug Dose Reduction or Interruption” value (10 mg/kg N=5) was 0 n (%) and the “Any TEAEs with Outcome of Death” value (10 mg/kg N=5) was 0 n (%). The “Drug Related SAE” value (10 mg/kg N=5) was 2 (40) n (%), the “SAE leading to Drug discontinuation” value (10 mg/kg N=5) was 2 (40) n (%) and the “SAEs related to the study treatment” value (China update) was 7. For the same substance, the DLT observed (China update Nov. 30, 2020, 18 dose escalation patients, Grade 4 neutrophil count decreased at 10 mg/kg) was 1, the “TEAE C-reactive protein increase” value (China update, 57 patients) was 35% and the TEAE anemia (China update, 57 patients) was 46%. The “TEAE aspartate aminotransferase increase” value (China update, 57 patients) was 32%, the TEAE asthenia (China update, 57 patients) was 30% and the “TEAE blood present in urine” value (China update, 57 patients) was 21%. It also gave a TEAE constipation (China update, 57 patients) of 25%, a TEAE cough (China update, 57 patients) of 23% and a TEAE hypoalbuminaemia (China update, 57 patients) of 30%. The TEAE hypochloraemia (China update, 57 patients) was 23%, the TEAE hyponatraemia (China update, 57 patients) was 30% and the “TEAE platelet count increase” value (China update, 57 patients) was 21%. It also gave a TEAE proteinuria (China update, 57 patients) of 39%, a TEAE pruritus (China update, 57 patients) of 21% and a TEAE rash (China update, 57 patients) of 25%. For the same substance, the “TEAE white blood cell count decrease” value (China update, 57 patients) was 26%.

Reference: patent publication US20230133118A1, “COMPOSITIONS AND METHODS FOR TREATING CANCER” (Adagene AG, priority 2020, published 2023)
